Measurements taken from patent publication US20140287989A1 (CENTRE NATIONAL DE LA RECHERCHE SCIENTIFIQUE, published 2014).
Several values for one entry are separate records, joined by “and”; a condition that tells them apart may be missing. Equal values may be shown once. Square brackets hold non-standard residues; d marks the D form. Phe(3,4-Cl2) = N[C@@H](Cc1ccc(Cl)c(Cl)c1)C(=O)O; Phe(4-Br) = N[C@@H](Cc1ccc(Br)cc1)C(=O)O; Phe(4-Cl) = N[C@@H](Cc1ccc(Cl)cc1)C(=O)O; Phe(4-Me) = Cc1ccc(C[C@H](N)C(=O)O)cc1; hCha = N[C@@H](CCC1CCCCC1)C(=O)O; Cha = N[C@@H](CC1CCCCC1)C(=O)O

Tests used:
[1] = molecular target: E. coli β clamp (β subunit of DNA polymerase III, dnaN gene product) (E. coli) (UniProt P0A988); assay: SPR competition: peptide with β ring injected on immobilized P1
Sequence of E. coli β clamp (β subunit of DNA polymerase III, dnaN gene product) (E. coli) (P0A988 whole entry): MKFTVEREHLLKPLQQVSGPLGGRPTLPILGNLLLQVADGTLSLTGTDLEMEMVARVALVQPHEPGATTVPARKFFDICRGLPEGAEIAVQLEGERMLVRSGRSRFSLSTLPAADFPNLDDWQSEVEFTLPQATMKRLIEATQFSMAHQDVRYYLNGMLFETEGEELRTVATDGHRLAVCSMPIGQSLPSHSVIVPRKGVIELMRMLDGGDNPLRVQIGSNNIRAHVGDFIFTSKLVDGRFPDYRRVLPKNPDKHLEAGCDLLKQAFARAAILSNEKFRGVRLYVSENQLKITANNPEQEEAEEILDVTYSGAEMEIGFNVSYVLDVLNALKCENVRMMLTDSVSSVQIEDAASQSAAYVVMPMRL

[2] = molecular target: E. coli β clamp (β subunit of DNA polymerase III, dnaN gene product), N-tagged (E. coli) (UniProt P0A988); assay: SPR competition (Biacore 3000): β ring 0.25 µM mixed with the challenger, injected on immobilised P1
Sequence of E. coli β clamp (β subunit of DNA polymerase III, dnaN gene product), N-tagged (E. coli) (P0A988 whole entry): as above

[3] = molecular target: E. coli β clamp (β subunit of DNA polymerase III, dnaN gene product), N-tagged (E. coli) (UniProt P0A988); assay: SPR competition against P1
[4] = molecular target: E. coli β clamp (β subunit of DNA polymerase III, dnaN gene product), N-tagged (E. coli) (UniProt P0A988); assay: SPR competition against P1, ratio of IC50 values; written as printed, the two labels seem exchanged against Table 14 and paragraph 151
[5] = molecular target: E. coli β clamp (β subunit of DNA polymerase III, dnaN gene product) (E. coli) (UniProt P0A988); assay: SPR competition, concentration of peptide that challenges 50% of the binding of β ring to P1
[6] = molecular target: E. coli β clamp (β subunit of DNA polymerase III, dnaN gene product), N-tagged (E. coli) (UniProt P0A988); assay: SPR competition on immobilised P1
[7] = molecular target: E. coli β clamp (β subunit of DNA polymerase III, dnaN gene product), N-tagged (E. coli) (UniProt P0A988); assay: SPR competition on immobilised P1; ΔG = -RT ln Ki
[8] = molecular target: E. coli β clamp (β subunit of DNA polymerase III, dnaN gene product), N-tagged (E. coli) (UniProt P0A988); assay: ITC, peptide 400 µM into β ring 20 or 30 µM, 25° C
[9] = molecular target: E. coli β clamp (β subunit of DNA polymerase III, dnaN gene product), N-tagged (E. coli) (UniProt P0A988)
[10] = molecular target: T1, E. coli β clamp (β subunit of DNA polymerase III, dnaN gene product) (E. coli, UniProt P0A988 1-366); assay: SPR competition: peptide with β ring injected on immobilized P1
T1 construct: Homodimeric ring; N-tagged protein expressed in BL21 E. coli and purified on Ni-NTA and MonoQ; also called β ring; β protein; not shown: N-terminal tag from the pET15b plasmid

[11] = molecular target: T1, E. coli β clamp (β subunit of DNA …); assay: as above; remark: listed apart in the source
[12] = molecular target: T1, E. coli β clamp (β subunit of DNA …); assay: SPR competition; ΔG = -RT ln Ki
[13] = molecular target: T2, E. coli β clamp (β subunit of DNA polymerase III, dnaN gene product) (E. coli, UniProt P0A988 1-366); assay: ITC, peptide 400 µM into β ring 30 µM, 25 °C, second experiment
T2 construct: Expressed in BL21 E. coli from pET15b with an N-terminal tag; also called β ring; β protein; not shown: N-terminal tag from plasmid pET15b ('N-tagged protein', purified on Ni-NTA)

[14] = molecular target: T2, E. coli β clamp (β subunit of DNA …); assay: ITC, peptide 400 µM into β ring 30 µM, 25 °C
[15] = molecular target: T2, E. coli β clamp (β subunit of DNA …); assay: SPR competition, β ring on immobilised P1
[16] = molecular target: T1, E. coli β clamp (β subunit of DNA …); assay: SPR competition: peptide with β ring injected on immobilized P1; remark: listed apart in the source
[17] = molecular target: T3, E. coli β clamp (β subunit of DNA polymerase III, dnaN gene product), N-tagged (E. coli, UniProt P0A988 1-366); assay: SPR competition on immobilised P1; ΔG = -RT ln Ki
T3 construct: The dnaN gene was cloned in pET15b and expressed in BL21 E. coli; also called β ring; β protein; not shown: N-terminal tag from the pET15b vector (N-tagged protein, enriched on Ni-NTA)
T3 sequence (P0A988 whole entry): as above

[18] = molecular target: T3, E. coli β clamp (β subunit of DNA …); assay: cell-based or functional assay
[19] = molecular target: T3, E. coli β clamp (β subunit of DNA …); assay: SPR competition on immobilised P1

P16, Ac Q Cha D hLeu F (peptide)
IC50 [1]: 230 nM

P4 (RQLVFL) (peptide; other documents disagree on this pair)
IC50 [2]: 256000 nM

P14-8 (Ac R Q Cha K L F) (peptide; other documents disagree on this pair)
Ki [3]: 1000 nM | fold decrease in affinity against P14 [3]: 10 fold | affinity ratio against P7 [4]: 50 fold | Ki [5]: 904 nM

P20, Ac-Q Cha DL Cha (peptide)
IC50 [1]: 410 nM

P2 (RQLVLL) (peptide; other documents disagree on this pair)
fold decrease in interaction against P1 [6]: 2 fold and 3 fold | ΔG [7]: -6.54 kcal/mol | IC50 [2]: 21500 nM

P12 (Ac-Q Cha DL pClF) (peptide)
Kd [8]: 100 nM | IC50, Pol IV based biochemical assay (inhibition of β dependent Pol IV elongation) [9]: 300 nM

P23, Ac-QFDLF (peptide; other documents disagree on this pair)
IC50 [1]: 31600 nM

P17, Ac Q Cha D Cha F (peptide)
IC50 [1]: 310 nM

P22, Ac-Q Cha DL Atda (peptide)
IC50 [1]: 3720 nM

P18, Ac Q Cha D hCha F (peptide)
IC50 [1]: 720 nM

P3 (RQLVLF) (peptide)
IC50, Pol IV based biochemical assay (inhibition of β dependent Pol IV elongation) [9]: 7000 nM

P13 (Ac-Q Cha DL pBrF) (peptide)
Kd [8]: 150 nM | IC50, Pol IV based biochemical assay (inhibition of β dependent Pol IV elongation) [9]: 250 nM

P11 (Ac-Q Cha DL pMeF) (peptide)
Kd [8]: 380 nM | IC50, Pol IV based biochemical assay (inhibition of β dependent Pol IV elongation) [9]: 2000 nM

P14-7 (Ac R Q Cha R L F) (peptide)
affinity ratio against P7 [3]: > 50 fold | affinity ratio against P7 [4]: 5 fold

P14-5 (Cin R Q Cha N L diClF) (peptide; other documents disagree on this pair)
Ki [5]: 3250 nM

P19, Ac Q ChaD NptGly F (peptide)
IC50 [1]: 5630 nM

P21, Ac-Q Cha DLW (peptide; other documents disagree on this pair)
IC50 [1]: 640 nM

B1: P11, Ac-Gln-Cha-Asp-Leu-pMePhe-OH (peptide)
peptide: Ac-Q[Cha]DL[Phe(4-Me)]-OH
SMILES: CC(=O)N[C@@H](CCC(N)=O)C(=O)N[C@@H](CC1CCCCC1)C(=O)N[C@@H](CC(=O)O)C(=O)N[C@@H](CC(C)C)C(=O)N[C@@H](Cc1ccc(C)cc1)C(=O)O
notes: X stands for Cha; the substituted phenylalanine is written F; also called Ac-Q Cha DL pMeF
IC50 [10]: 260 nM | IC50 [11]: 260 nM | ΔG [12]: -9.44 kcal/mol

B2: P1, natural C-terminal heptapeptide of E. coli DNA polymerase IV (RQLVLGL) (peptide)
peptide: H-RQLVLGL-OH
notes: Free peptide in ITC; also called H-Arg-Gln-Leu-Val-Leu-Gly-Leu-OH
Kd [13]: 2010 nM | ΔG [13]: -7.7 kcal/mol | ΔH [13]: -5.5 kcal/mol | ΔS [13]: 7.6 cal/mol/deg | Kd [14]: 1580 nM | ΔG [14]: -7.9 kcal/mol | ΔH [14]: -4.09 kcal/mol | ΔS [14]: 12.8 cal/mol/deg | IC50 [15]: 8850 nM

B3: P12, Ac-Gln-Cha-Asp-Leu-pClPhe-OH (peptide)
peptide: Ac-Q[Cha]DL[Phe(4-Cl)]-OH
SMILES: CC(=O)N[C@@H](CCC(N)=O)C(=O)N[C@@H](CC1CCCCC1)C(=O)N[C@@H](CC(=O)O)C(=O)N[C@@H](CC(C)C)C(=O)N[C@@H](Cc1ccc(Cl)cc1)C(=O)O
notes: X stands for Cha; the substituted phenylalanine is written F; also called Ac-Q Cha DL pClF
IC50 [10]: 160 nM | IC50 [11]: 160 nM | ΔG [12]: -9.73 kcal/mol

B4: P8, Ac-Gln-hCha-Asp-Leu-Phe-OH (peptide)
peptide: Ac-Q[hCha]DLF-OH
SMILES: CC(=O)N[C@@H](CCC(N)=O)C(=O)N[C@@H](CCC1CCCCC1)C(=O)N[C@@H](CC(=O)O)C(=O)N[C@@H](CC(C)C)C(=O)N[C@@H](Cc1ccccc1)C(=O)O
notes: X stands for the non-natural residue; also called Ac Q hCha DLF
IC50 [10]: 82800 nM | ΔG [12]: -5.74 kcal/mol | IC50 [16]: 82800 nM

B5: P6 (AcQLDLF) (peptide)
peptide: Ac-QLDLF-OH
notes: also called Ac-Gln-Leu-Asp-Leu-Phe-OH
Kd [13]: 613 nM | ΔG [13]: -8.3 kcal/mol | ΔH [13]: -11.1 kcal/mol | ΔS [13]: -9.08 cal/mol/deg | Kd [14]: 820 nM | ΔH [14]: -11.3 kcal/mol | ΔS [14]: -10.4 cal/mol/deg

B6: P14, Ac-Gln-Cha-Asp-Leu-(3,4-di-Cl)Phe-OH (peptide)
peptide: Ac-Q[Cha]DL[Phe(3,4-Cl2)]-OH
SMILES: CC(=O)N[C@@H](CCC(N)=O)C(=O)N[C@@H](CC1CCCCC1)C(=O)N[C@@H](CC(=O)O)C(=O)N[C@@H](CC(C)C)C(=O)N[C@@H](Cc1ccc(Cl)c(Cl)c1)C(=O)O
notes: X stands for Cha; the substituted phenylalanine is written F; also called Ac-Q Cha DL diClF; Bu29
IC50 [10]: 77 nM | IC50 [11]: 72 nM | ΔG [12]: -9.85 kcal/mol

B7: P5, H-Gln-Leu-Asp-Leu-Phe-OH (peptide)
peptide: H-QLDLF-OH
notes: also called QLDLF
ΔG [12]: -6.87 kcal/mol

B8: E. coli DNA polymerase IV (enzyme)
chain: MRKIIHVDMDCFFAAVEMRDNPALRDIPIAIGGSRERRGVISTANYPARKFGVRSAMPTGMALKLCPHLTLLPGRFDAYKEASNHIREIFSRYTSRIEPLSLDEAYLDVTDSVHCHGSATLIAQEIRQTIFNELQLTASAGVAPVKFLAKIASDMNKPNGQFVITPAEVPAFLQTLPLAKIPGVGKVSAAKLEAMGLRTCGDVQKCDLVMLLKRFGKFGRILWERSQGIDERDVNSERLRKSVGVERTMAEDIHHWSECEAIIERLYPELERRLAKVKPDLLIARQGVKLKFDDFQQTTQEHVWPRLNKADLIATARKTWDERRGGRGVRLVGLHVTLLDPQMERQLVLGL
notes: Called the whole polymerase / the full PolIV enzyme; construct and tags not described; also called PolIV; Pol IV
ΔG [17]: -9.09 kcal/mol

B9: E. coli DNA polymerase IV (enzyme)
chain: B8 chain
notes: also called PolIV; Pol IV
ΔG [12]: -9.09 kcal/mol

B10: P6 (AcQLDLF) (peptide)
peptide: Ac-QLDLF-OH
notes: as for B5
ΔG [17]: -8.22 kcal/mol | IC50, Pol IV based biochemical assay (inhibition of β dependent Pol IV elongation) [18]: 4500 nM | times tighter binding than P1 [19]: ~8 fold

B11: P1, H-Arg-Gln-Leu-Val-Leu-Gly-Leu-OH (peptide)
peptide: H-RQLVLGL-OH
notes: also called RQLVLGL; natural Cter heptamer of E. coli DNA polymerase IV
IC50 [10]: 8850 nM | ΔG [12]: -7.06 kcal/mol

B12: P6, Ac-Gln-Leu-Asp-Leu-Phe-OH (peptide)
peptide: Ac-QLDLF-OH
notes: also called AcQLDLF
ΔG [12]: -8.22 kcal/mol

B13: P5 (QLDLF) (peptide)
peptide: QLDLF
ΔG [17]: -6.87 kcal/mol

B14: P13, Ac-Gln-Cha-Asp-Leu-pBrPhe-OH (peptide)
peptide: Ac-Q[Cha]DL[Phe(4-Br)]-OH
SMILES: CC(=O)N[C@@H](CCC(N)=O)C(=O)N[C@@H](CC1CCCCC1)C(=O)N[C@@H](CC(=O)O)C(=O)N[C@@H](CC(C)C)C(=O)N[C@@H](Cc1ccc(Br)cc1)C(=O)O
notes: X stands for Cha; the substituted phenylalanine is written F; also called Ac-Q Cha DL pBrF
IC50 [10]: 96 nM | IC50 [11]: 100 nM | ΔG [12]: -9.71 kcal/mol
